According to patent US20060002951A1:

Target: wild-type human APOBEC3G with a fused HA tag at the C-terminus (human) (UniProt Q9HC16)
Test: co-immunoprecipitation with anti-HA from 293T cell lysate, Western blot with anti-CA; ratio normalized to hGag

Sequence of wild-type human APOBEC3G with a fused HA tag at the C-terminus (human) (Q9HC16 whole entry, the tested form may be a part): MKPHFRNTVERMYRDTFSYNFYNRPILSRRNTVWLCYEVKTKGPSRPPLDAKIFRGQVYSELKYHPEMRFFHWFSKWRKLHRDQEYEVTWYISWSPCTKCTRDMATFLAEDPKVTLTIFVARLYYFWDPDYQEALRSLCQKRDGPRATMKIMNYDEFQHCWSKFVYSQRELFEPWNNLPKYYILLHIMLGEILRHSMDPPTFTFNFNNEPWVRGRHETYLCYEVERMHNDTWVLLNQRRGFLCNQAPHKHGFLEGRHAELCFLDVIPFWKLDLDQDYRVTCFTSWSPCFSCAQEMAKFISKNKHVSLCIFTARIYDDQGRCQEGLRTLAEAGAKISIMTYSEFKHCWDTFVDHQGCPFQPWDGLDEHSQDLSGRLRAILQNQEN

hGag deletion mutant Δ378-500 (from UniProt P04585 1-377)
reduction in the interaction of Gag with APOBEC3G against hGag: > 95%
